The values below come from article PMC4958592 (Molecular cell, 2016).

In this experiment the target is methyltransferase domain of Mettl3 (MTD3, residues 357-580) (human, UniProt Q86U44 357-580). Kind of experiment: SEC-MALS.
Sequence of methyltransferase domain of Mettl3 (MTD3, residues 357-580) (Q86U44 357-580): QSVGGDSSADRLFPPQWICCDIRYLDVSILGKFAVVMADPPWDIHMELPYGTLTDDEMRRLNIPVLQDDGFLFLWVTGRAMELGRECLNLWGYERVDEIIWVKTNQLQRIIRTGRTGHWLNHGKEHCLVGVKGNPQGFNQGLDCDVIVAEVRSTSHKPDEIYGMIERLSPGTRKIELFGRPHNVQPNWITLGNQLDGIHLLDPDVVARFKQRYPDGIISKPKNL

B1: methyltransferase domain of Mettl14 (MTD14, residues 111-456) (domain or fragment, human, UniProt Q9HCE5 111-456, looked up)
chain: QSLNPHNDYCQHFVDTGHRPQNFIRDVGLADRFEEYPKLRELIRLKDELIAKSNTPPMYLQADIEAFDIRELTPKFDVILLEPPLEEYYRETGITANEKCWTWDDIMKLEIDEIAAPRSFIFLWCGSGEGLDLGRVCLRKWGYRRCEDICWIKTNKNNPGKTKTLDPKAVFQRTKEHCLMGIKGTVKRSTDGDFIHANVDIDLIITEEPEIGNIEKPVEIFHIIEHFCLGRRRLHLFGRDSTIRPGWLTVGPTLTNSNYNAETYASYFSAPNSYLTGCTEEIERLRPKSPPPKSKSDRGGGAPRGGGRGGTSAGRGRERNRSNFRGERGGFRGGRGGAHRGGFPPR
For B1, the “stoichiometry N” value turned out to be 1.

Broadly, the stoichiometry N is a count of units in the complex or per binding partner.
